This note sets out measurements from patent US20210032329A1.

By Kd is commonly meant the equilibrium constant for the complex coming apart. As a reminder, the koff is a measure of how fast the partners let go of each other. By kon is commonly meant a measure of how fast the partners come together. Usually EC50 stands for the concentration at which the effect is half-maximal.

In test [1] the target is marmoset SEMA4D-His (marmoset). In words: BIACORE; antibody captured with goat anti-human IgG Fc, marmoset SEMA4D-His as analyte. A general note: Surface plasmon resonance follows binding to a sensor surface in real time, without labels.
For test [2], the target named is marmoset SEMA4D-His (marmoset). Briefly: BIACORE; antibody captured with goat anti-human IgG Fc, marmoset SEMA4D-His as analyte (second row for this antibody).
Test [3] deals with cynomolgus monkey SEMA4D-His (cynomolgus monkey). Briefly: receptor blocking; antibody dilution series pre-incubated with SEMA4D-His, binding to 293PLXNB1 cells (Plexin B1) read by flow cytometry. In general terms: A flow cytometer gives signals particle by particle.
The target of another test is human SEMA4D-His (human) (UniProt Q92854). The description is as above.
The target of a further test is mouse SEMA4D-His (mouse) (UniProt O09126). The description is as above.
For the next test, the target named is rat SEMA4D-His (rat). Described as above.
Sequence of rat SEMA4D-His (rat) (chain, as listed by the source): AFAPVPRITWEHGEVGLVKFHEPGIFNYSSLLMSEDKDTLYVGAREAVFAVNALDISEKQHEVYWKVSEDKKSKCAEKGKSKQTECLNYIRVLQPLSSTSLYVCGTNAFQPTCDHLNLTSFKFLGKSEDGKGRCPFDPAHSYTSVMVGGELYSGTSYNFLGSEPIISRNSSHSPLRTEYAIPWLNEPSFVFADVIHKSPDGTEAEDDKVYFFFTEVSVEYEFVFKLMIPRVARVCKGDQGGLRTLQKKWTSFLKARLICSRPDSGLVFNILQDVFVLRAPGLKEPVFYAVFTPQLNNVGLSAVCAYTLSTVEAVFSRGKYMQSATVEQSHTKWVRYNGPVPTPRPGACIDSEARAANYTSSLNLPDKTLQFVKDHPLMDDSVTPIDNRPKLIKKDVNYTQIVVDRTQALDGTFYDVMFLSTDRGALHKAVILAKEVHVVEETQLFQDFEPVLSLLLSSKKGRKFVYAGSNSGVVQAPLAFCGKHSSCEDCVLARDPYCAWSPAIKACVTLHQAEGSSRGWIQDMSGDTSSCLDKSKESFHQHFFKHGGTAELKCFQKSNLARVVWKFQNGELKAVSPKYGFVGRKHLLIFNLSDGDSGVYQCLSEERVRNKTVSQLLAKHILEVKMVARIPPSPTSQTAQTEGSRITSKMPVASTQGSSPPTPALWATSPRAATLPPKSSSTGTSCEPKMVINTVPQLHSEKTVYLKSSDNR

Sequence of marmoset SEMA4D-His (marmoset) (chain, as listed by the source): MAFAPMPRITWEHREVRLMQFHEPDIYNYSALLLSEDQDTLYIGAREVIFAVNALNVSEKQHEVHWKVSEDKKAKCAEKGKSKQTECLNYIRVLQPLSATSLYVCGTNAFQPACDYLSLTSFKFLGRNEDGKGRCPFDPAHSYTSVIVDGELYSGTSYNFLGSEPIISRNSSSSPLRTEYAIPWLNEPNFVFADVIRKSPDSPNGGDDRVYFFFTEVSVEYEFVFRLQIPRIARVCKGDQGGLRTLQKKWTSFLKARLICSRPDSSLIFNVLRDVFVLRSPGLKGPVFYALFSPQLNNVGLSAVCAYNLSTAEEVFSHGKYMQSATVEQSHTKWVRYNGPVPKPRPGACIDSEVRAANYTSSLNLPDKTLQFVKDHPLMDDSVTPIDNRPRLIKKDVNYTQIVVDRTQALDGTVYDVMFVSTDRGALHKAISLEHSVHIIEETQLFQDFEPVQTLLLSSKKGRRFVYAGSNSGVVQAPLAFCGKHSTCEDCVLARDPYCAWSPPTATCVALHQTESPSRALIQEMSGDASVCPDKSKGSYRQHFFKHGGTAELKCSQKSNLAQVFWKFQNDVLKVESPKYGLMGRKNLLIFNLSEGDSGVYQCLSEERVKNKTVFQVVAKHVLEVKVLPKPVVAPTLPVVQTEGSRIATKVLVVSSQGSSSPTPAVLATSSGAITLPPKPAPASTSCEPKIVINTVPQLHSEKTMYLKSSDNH
Sequence of human SEMA4D-His (human) (Q92854 22-734 limits assumed): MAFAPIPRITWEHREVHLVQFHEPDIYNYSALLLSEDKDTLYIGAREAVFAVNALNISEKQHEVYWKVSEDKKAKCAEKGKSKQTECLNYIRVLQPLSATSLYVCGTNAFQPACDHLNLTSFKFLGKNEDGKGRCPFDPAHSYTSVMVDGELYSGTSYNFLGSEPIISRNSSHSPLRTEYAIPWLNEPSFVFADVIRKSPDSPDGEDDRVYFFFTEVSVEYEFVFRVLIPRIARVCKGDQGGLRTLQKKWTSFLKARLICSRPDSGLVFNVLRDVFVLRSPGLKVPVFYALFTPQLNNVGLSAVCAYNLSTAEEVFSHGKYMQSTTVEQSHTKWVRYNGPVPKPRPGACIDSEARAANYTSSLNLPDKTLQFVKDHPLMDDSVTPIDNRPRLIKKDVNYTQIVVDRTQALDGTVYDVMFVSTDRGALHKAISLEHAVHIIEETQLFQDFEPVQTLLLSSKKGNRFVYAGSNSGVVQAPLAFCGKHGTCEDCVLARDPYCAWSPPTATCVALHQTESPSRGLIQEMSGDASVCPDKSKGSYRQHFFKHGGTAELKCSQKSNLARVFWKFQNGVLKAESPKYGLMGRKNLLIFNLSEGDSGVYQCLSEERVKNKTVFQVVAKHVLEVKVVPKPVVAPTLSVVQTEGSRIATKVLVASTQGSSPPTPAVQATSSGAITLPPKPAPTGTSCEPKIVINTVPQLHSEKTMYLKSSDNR
Sequence of mouse SEMA4D-His (mouse) (O09126 24-733 limits assumed): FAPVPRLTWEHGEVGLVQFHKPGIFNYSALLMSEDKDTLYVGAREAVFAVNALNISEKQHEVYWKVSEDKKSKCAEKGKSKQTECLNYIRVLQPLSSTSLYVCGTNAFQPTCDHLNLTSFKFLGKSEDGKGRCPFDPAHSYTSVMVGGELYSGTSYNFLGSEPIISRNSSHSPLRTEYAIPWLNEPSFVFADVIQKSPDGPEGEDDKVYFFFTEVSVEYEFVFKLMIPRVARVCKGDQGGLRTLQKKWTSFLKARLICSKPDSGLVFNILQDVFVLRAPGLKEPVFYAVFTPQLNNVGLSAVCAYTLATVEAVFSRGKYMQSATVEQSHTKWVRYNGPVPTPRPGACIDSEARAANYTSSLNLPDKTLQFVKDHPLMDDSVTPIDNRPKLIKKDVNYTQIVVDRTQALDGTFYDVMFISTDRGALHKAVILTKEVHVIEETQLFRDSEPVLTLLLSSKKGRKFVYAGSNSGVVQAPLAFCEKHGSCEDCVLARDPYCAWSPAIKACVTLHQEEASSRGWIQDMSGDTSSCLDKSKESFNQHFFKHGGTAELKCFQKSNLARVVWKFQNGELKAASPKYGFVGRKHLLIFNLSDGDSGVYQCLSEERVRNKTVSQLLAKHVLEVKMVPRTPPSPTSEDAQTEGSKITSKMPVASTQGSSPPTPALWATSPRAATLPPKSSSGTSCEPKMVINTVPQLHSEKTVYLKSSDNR

B1: humanized MAb 2503 (VX15/2503) (antibody, INN chains, looked up, V domains shown)
VH: QVQLVQSGAEVKKPGSSVKVSCKASGYSFSDYYMHWVRQAPGQGLEWMGQINPTTGGASYNQKFKGKATITVDKSTSTAYMELSSLRSEDTAVYYCARYYYGRHFDVWGQGTTVTVSS
VL: DIVMTQSPDSLAVSLGERATINCKASQSVDYDGDSYMNWYQQKPGQPPKLLIYAASNLESGVPDRFSGSGSGTDFTLTISSLQAEDVAVYYCQQSNEDPYTFGQGTKLEIK
B1: the Ka in test [1] worked out at 2.06e+08 M⁻¹; in test [2] it was 2.4e+08 M⁻¹. Further, the Kd stood at 4860 pM in test [1] and 4170 pM in test [2]. Moreover, the koff came to 0.00118 s⁻¹ in test [1] and 0.00126 s⁻¹ in test [2]. Moreover, the kon came to 243000 M⁻¹ s⁻¹ in test [1] and 302000 M⁻¹ s⁻¹ in test [2]. Also, the EC50 worked out at 500 pM in test [3], 300 pM with human SEMA4D-His (human), 400 pM with mouse SEMA4D-His (mouse) and 600 pM in the test with rat SEMA4D-His (rat).
